± gives the standard deviation of the averaged measurements.
Tested on: ATP
Assay: switch fluorescence ratio, 500 uM ATP over buffer (Cy3 cluster intensity, sum of 5 cycles each) (fold (ratio)); higher = stronger signal-on switching upon ATP binding; sequences stand for … in TCGTCGGCAGCGTCAGATGTGTATAAGAGACAGTTTTTTTTTTTTTTTTTTTTTTTTT…TC
Settings: aptamer strand: ATP DNA aptamer (quencher-CACCTGGGGGAGTATTGCGGAGGAAGG + anchor), 100 nM annealed; ATP concentration: 500 uM
Method in brief: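 Cy3-labelled switching-strand clusters on a modified Illumina MiSeq flow-cell were annealed to 100 nM quencher-labelled ATP aptamer and imaged first in selection buffer, then after 15 min with 500 uM ATP at 22 °C. NaOH stripping and re-annealing separated each of five buffer/ATP cycles, and clusters outside 100-1000 RFU were excluded. The fluorescence ratio sums target-cycle Cy3 intensity over buffer-cycle Cy3 intensity per cluster and averages it per switch-domain sequence.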
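Note: ATP exposure 15 min at 22 °C before imaging.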

Sequence	switch fluorescence ratio
TTTAGGCTTG	1.02 ± 0.017
TTTAGGGGGC	1.03 ± 0.032
TTTAGGGGTT	1.02 ± 0.083
TTTAGGGTAT	1.012 ± 0.0069
TTTAGGTGGC	1.02 ± 0.009
TTTAGTAAAC	1.08 ± 0.11
TTTAGTGCTT	0.997 ± 0.03
TTTAGTTACG	0.987 ± 0.013
TTTAGTTACT	1.06 ± 0.022
TTTAGTTGAA	0.988 ± 0.023
TTTAGTTTGT	0.99 ± 0.036
TTTATAAAGA	1.02 ± 0.059
TTTATAAAGT	0.958 ± 0.032
TTTATAAGTA	1.02 ± 0.026
TTTATAAGTT	0.986 ± 0.023
TTTATAATCT	1.05 ± 0.019
TTTATACGTT	1.01 ± 0.044
TTTATACTTT	1.06 ± 0.1
TTTATAGACT	1.02 ± 0.0016
TTTATAGGAA	1.02 ± 0.03
TTTATAGTGC	1.01 ± 0.027
TTTATATAGA	0.996 ± 0.033
TTTATATGGT	0.988 ± 0.028
TTTATATTGG	1.034 ± 0.00088
TTTATCAGAC	1.07 ± 0.059

Sequence	switch fluorescence ratio
TTTATCATTG	0.9909 ± 0.0086
TTTATGAAAT	1.12 ± 0.19
TTTATGCCGT	0.9505 ± 0.0022
TTTATGCTTT	1.01 ± 0.024
TTTATGGAGT	1.024 ± 0.0018
TTTATGGGTG	1.01 ± 0.016
TTTATGTCTG	1.01 ± 0.039
TTTATGTTAT	1.1 ± 0.097
TTTATGTTGG	0.979 ± 0.036
TTTATGTTTC	0.98 ± 0.025
TTTATTAATG	1.01 ± 0.026
TTTATTACTT	1 ± 0.029
TTTATTATAT	1.01 ± 0.031
TTTATTATGC	1.03 ± 0.026
TTTATTATGG	0.989 ± 0.032
TTTATTGGCT	1 ± 0.051
TTTATTGGGC	0.988 ± 0.053
TTTATTGTCA	0.987 ± 0.029
TTTATTTAAT	1.03 ± 0.035
TTTATTTACT	1.011 ± 0.0036
TTTATTTGCG	0.9875 ± 0.0067
TTTATTTTTT	1 ± 0.039
TTTCAAAAGA	1 ± 0.048
TTTCAAAGTA	0.9657 ± 0.0071
TTTCAACGGT	1.009 ± 0.0075

Sequence	switch fluorescence ratio
TTTCAATAGG	1.01 ± 0.024
TTTCAATTTA	0.996 ± 0.011
TTTCACACTC	1.02 ± 0.03
TTTCACAGGA	1.03 ± 0.025
TTTCACCGGG	1.16 ± 0.17
TTTCACGAGC	0.993 ± 0.091
TTTCACGGTA	1.15 ± 0.11
TTTCAGAGTC	1.01 ± 0.064
TTTCAGATGG	1.006 ± 0.0093
TTTCAGCT	0.977 ± 0.013
TTTCAGCTTA	1.15 ± 0.15
TTTCAGGGGT	1.86 ± 0.81
TTTCAGGTCC	1.03 ± 0.065
TTTCAGGTTA	1.06 ± 0.012
TTTCAGTCCC	0.993 ± 0.052
TTTCAGTGCT	0.9947 ± 0.005
TTTCATATGC	0.995 ± 0.073
TTTCATCTTT	1.04 ± 0.078
TTTCATGATC	1 ± 0.026
TTTCATGGCT	1.01 ± 0.035
TTTCATTCTC	0.991 ± 0.01
TTTCCATGGA	0.984 ± 0.029
TTTCCATTAA	1 ± 0.044
TTTCCCCAAT	1.07 ± 0.063
TTTCCCTGTT	1.05 ± 0.076

Sequence	switch fluorescence ratio
TTTCCCTTCT	1.05 ± 0.06
TTTCCGACGG	1.57 ± 0.79
TTTCCGGACG	1.02 ± 0.037
TTTCCGGCGG	1.12 ± 0.09
TTTCCGGGGA	1.18 ± 0.29
TTTCCTATAA	1.13 ± 0.21
TTTCGATGGT	0.959 ± 0.019
TTTCGCCATA	2.39 ± 2
TTTCGCTC	1.06 ± 0.019
TTTCGCTCGT	0.9628 ± 0.003
TTTCGGACGC	1.35 ± 0.33
TTTCGGAGGG	0.982 ± 0.034
TTTCGGAGTT	1.05 ± 0.071
TTTCGGATAA	1.02 ± 0.056
TTTCGGATGC	1.22 ± 0.26
TTTCGGATTC	1.08 ± 0.059
TTTCGGGACC	1.04 ± 0.031
TTTCGGGACG	0.987 ± 0.035
TTTCGGGCAG	1.02 ± 0.037
TTTCGGGGAT	1.03 ± 0.038
TTTCGGGTAG	1.011 ± 0.0014
TTTCGGTCTG	1.006 ± 0.0075
TTTCGGTGCT	1.03 ± 0.049
TTTCGGTTAA	1.09 ± 0.11
TTTCGGTTCA	1.037 ± 0.0044

Sequence	switch fluorescence ratio
TTTCGTAATT	1 ± 0.024
TTTCGTATAC	2.1 ± 0.041
TTTCGTCCTT	1.18 ± 0.014
TTTCGTCGAA	1.017 ± 0.01
TTTCGTGCGG	1 ± 0.015
TTTCGTGTGT	0.97 ± 0.0097
TTTCGTTCAT	1.033 ± 0.0078
TTTCGTTCTC	1.008 ± 0.0045
TTTCGTTGAA	0.9964 ± 0.0069
TTTCTAACGT	1.001 ± 0.0026
TTTCTAAGGG	1.07 ± 0.061
TTTCTAAGTC	0.9559 ± 0.006
TTTCTAATTT	1.02 ± 0.015
TTTCTACGTA	1.13 ± 0.14
TTTCTAGACA	1.02 ± 0.021
TTTCTAGTCT	0.935 ± 0.0085
TTTCTATGGA	1.0135 ± 0.0006
TTTCTATTTT	1.02 ± 0.066
TTTCTCAGAG	0.995 ± 0.016
TTTCTCCGGT	1.53 ± 0.39
TTTCTCGGCA	1.44 ± 0.42
TTTCTCTGAG	1.04 ± 0.033
TTTCTGACGT	1.09 ± 0.057
TTTCTGGGTC	1.02 ± 0.068
TTTCTGTAAG	1.01 ± 0.036

Sequence	switch fluorescence ratio
TTTCTGTGGA	0.9892 ± 0.0091
TTTCTTAGAG	0.992 ± 0.038
TTTCTTAGGT	1.03 ± 0.014
TTTCTTAGTT	1.04 ± 0.017
TTTCTTCGCT	1.01 ± 0.046
TTTCTTCTCA	1.01 ± 0.024
TTTCTTTATC	0.974 ± 0.017
TTTCTTTCTC	1.02 ± 0.026
TTTCTTTTTT	1 ± 0.024
TTTGAAAACG	1.02 ± 0.033
TTTGAAAGAA	0.9779 ± 0.0054
TTTGAAAGTT	1.01 ± 0.015
TTTGAAATAC	2.2 ± 0.025
TTTGAACGCT	1.06 ± 0.015
TTTGAAGACA	0.991 ± 0.028
TTTGAAGACT	0.98 ± 0.028
TTTGAAGGAT	1.29 ± 0.35
TTTGAAGTCA	1 ± 0.022
TTTGAATTCG	1.009 ± 0.0022
TTTGAATTTT	0.998 ± 0.024
TTTGACAGGA	1.06 ± 0.057
TTTGACATGT	0.975 ± 0.038
TTTGACGCGC	1.16 ± 0.13
TTTGACGGGA	1.01 ± 0.012
TTTGACGGTA	1.09 ± 0.016

Sequence	switch fluorescence ratio
TTTGACTAGG	1.01 ± 0.038
TTTGACTTCA	1.03 ± 0.018
TTTGACTTTT	0.994 ± 0.028
TTTGAGAAGC	0.992 ± 0.026
TTTGAGGAAG	1.01 ± 0.022
TTTGAGGACT	0.992 ± 0.025
TTTGAGGCCA	1.04 ± 0.061
TTTGAGGGGG	1.01 ± 0.066
TTTGAGGTGA	1.04 ± 0.07
TTTGAGTCGG	0.957 ± 0.0034
TTTGAGTTGT	0.962 ± 0.035
TTTGATAGT	1 ± 0.021
TTTGATATTT	1.11 ± 0.22
TTTGATCAAG	1.021 ± 0.008
TTTGATCGGA	0.965 ± 0.062
TTTGATCTAT	0.989 ± 0.028
TTTGATCTCG	1.0054 ± 0.00071
TTTGATCTGC	0.961 ± 0.031
TTTGATGATA	0.981 ± 0.014
TTTGATGCAT	1.03 ± 0.026
TTTGATGCGT	1.018 ± 0.0095
TTTGATTTGC	0.961 ± 0.042
TTTGATTTTC	0.976 ± 0.049
TTTGCAAGGG	1.81 ± 1.2
TTTGCATCTA	1.0306 ± 0.00072

Sequence	switch fluorescence ratio
TTTGCCAGTT	0.9847 ± 0.0019
TTTGCCCCCT	1.04 ± 0.051
TTTGCCCTGG	1.1 ± 0.08
TTTGCCGGG	1.02 ± 0.0019
TTTGCCGGGA	1.01 ± 0.019
TTTGCCGGGT	0.998 ± 0.046
TTTGCCTTTT	1 ± 0.042
TTTGCGAGGG	1.01 ± 0.018
TTTGCGCTTT	1.1 ± 0.084
TTTGCGGAAA	1.01 ± 0.023
TTTGCGGTCA	1.021 ± 0.0091
TTTGCGTTCA	1.02 ± 0.078
TTTGCTACTG	1.052 ± 0.0096
TTTGCTCGGG	1.003 ± 0.002
TTTGCTGCGG	1.03 ± 0.041
TTTGCTGGCG	0.935 ± 0.024
TTTGCTTGGT	0.994 ± 0.03
TTTGGAAAAA	0.996 ± 0.032
TTTGGAAAAC	0.9853 ± 0.0027
TTTGGAAATT	1.43 ± 0.61
TTTGGAAGCC	1 ± 0.041
TTTGGAATAG	1.06 ± 0.045
TTTGGAATAT	1.04 ± 0.013
TTTGGACAGT	0.978 ± 0.03
TTTGGAGGTG	1.04 ± 0.024

— the supplement of paper PMC10126150
